Assay results reported in the nanobody polyreactivity screen of Harvey et al. (2022).

Assay: yeast display, Sf9 membrane polyspecificity reagent, FACS + sequencing; frameworks hold sequencing errors
Method in brief: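 Nanobodies from a synthetic yeast display library (Saccharomyces cerevisiae BJ5465), induced 36–48 hours with galactose, were stained 1 hour at 4 °C with 10% biotinylated, detergent-solubilized Sf9 membrane reagent, enriched on streptavidin microbeads, then FACS-sorted. Anti-HA (expression) and streptavidin (reagent binding) fluorescence set low and high (top ~1%) gates. Polyreactivity labels come from the gate of origin. Genes were colony-PCR amplified, MiSeq 2 × 250 sequenced and filtered by CDR length.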

Sequence: QVQLVESGGGLVQAGGSLRLSCAASGRIFDPYAMGWYRQAPGKERELVAAIDWSDGGTYYADSVKGRFTISRDNAKNTVYLQMNSLKPEDTAVYYCAADLLDISYYDGMDYWGQGTQVTVSS
- polyreactivity (PSR sort gate): low polyreactivity

Sequence: QVQLVESGGGLVQAGGSLRLSCAASGRIFDQNAMGWYRQAPGKDRELVAAISSSGGRTYYADSVKGRFTISRDNAKNPVYLQMNSLKPEDTAVYYCNKDRTVTTYEYWGQGTQVTVSS
- polyreactivity (PSR sort gate): high polyreactivity

Sequence: QVQLVESGGGLVQAGGSLRLSCAASGRIFDRKAMGWYRQAPGKERELVAAISSRDGSTYYADSVKGRFTISRDNAKNTVYLQMNSLKPEDTGVYYCNRVSRGPVGGYYWGQGTQVTVSS
- polyreactivity (PSR sort gate): high polyreactivity

Sequence: QVQLVESGGGLVQAGGSLRLSCAASGRIFDRNAMGWYRQAPGKERELVAAIDDSGGDTSYADSVKGRFTISRDNAKNTVYLQMNSLKPEDTAVYYCNAGYADFVTYPRYYYWGQGTQVTVSS
- polyreactivity (PSR sort gate): low polyreactivity

Sequence: QVQLVESGGGLVQAGGSLRLSCAASGRIFDRYAIGWYRHAPGKERELVAAITSGGDTNYADSVKGRFTISRDNAKITVYLPKNSLKPEDTAVYYCNTRLVLGGGRRHDYWGQGTQVTVSS
- polyreactivity (PSR sort gate): low polyreactivity

Sequence: QVQLVESGGGLVQAGGSLRLSCAASGRIFDRYALGWYRQAPGTERELVAVISQSGGRTYYADSVKGRFTISRDNAKNTVYLEMNSLKPEDSAVYYCNKRYRNRYSYSEGDYWGQGTQVTVSS
- polyreactivity (PSR sort gate): high polyreactivity

Sequence: QVQLVESGGGLVQAGGSLRLSCAASGRIFDSYAMGWYRQAPGKERELVATISWDSASTYYADSVKGRFTISRDYAKNTVYLQMNSLKPEDTAVYYCAAGGSSSWAFNYWGQGTQVTVSS
- polyreactivity (PSR sort gate): low polyreactivity

Sequence: QVQLVESGGGLVQAGGSLRLSCAASGRIFDVNAMGWYRQAPGKERELVAAINKSGGTTYYADSVKGRFTISRDNAKNTVYLQMYSLKPEDTAVYYCAADSYSSRYDYWGQGTQVTVSS
- polyreactivity (PSR sort gate): high polyreactivity

Sequence: QVQLVESGGGLVQAGGSLRLSCAASGRIFDVNAMGWYRQAPGKERELVAAITDSDGSTYYADSVKGRFTISRDNAKNTVYLQMNSLKPEDTAVYYCAATQEPVTPQPYGYWGQATQVTVSS
- polyreactivity (PSR sort gate): low polyreactivity

Sequence: QVQLVESGGGLVQAGGSLRLSCAASGRIFDYNAMRRYRQAPGKERELVAAINSGGSTYADSVKGRFTISRDNAKNTVYLQMNSLKPEDTGVYDCAKSLGQTVWEYDSWGQGTQVTVSS
- polyreactivity (PSR sort gate): low polyreactivity

Sequence: QVQLVESGGGLVQAGGSLRLSCAASGRIFDYYAMGWYRQAPGKERELVARISSSGGSTYYADSVKGRFTISRDNAKNTVYLQKNSLKPEDTAVSYCDARSPRYWLRLREYWGQGTQVTVSS
- polyreactivity (PSR sort gate): high polyreactivity

Sequence: QVQLVESGGGLVQAGGSLRLSCAASGRIFDYYAMGWYRQEAGKERELVARITSGGTTNYADSVKGRFTISRDNAKNTVYLQMNSLKPEDTAVYYCNAQDYSDPLQMDYWGQCTQVTVSS
- polyreactivity (PSR sort gate): low polyreactivity

Sequence: QVQLVESGGGLVQAGGSLRLSCAASGRIFEDNGMGWYRQAPGKEREFVATISWDGDRTYYADSVKGRFTISRDNAKNTVYLQMNSLKPEDTAVYYCNADLPLWPVRGYEYWGQGTQVTVSS
- polyreactivity (PSR sort gate): low polyreactivity

Sequence: QVQLVESGGGLVQAGGSLRLSCAASGRIFEFYAMGWYRQAPGKERELVAAISFSGTSTYYADSVKGRFTISRDNAKNTVYLQMNSLKPEDTAVYYCAVRGVGADYDYWGQGTQVTVSS
- polyreactivity (PSR sort gate): low polyreactivity

Sequence: QVQLVESGGGLVQAGGSLRLSCAASGRIFERYAMGAYRQAPGKERELVAAISVSGSGTFYADSVKGLFTISRDNAKNTVYLQMNSLKTEDTAVYYCAADASLLGLFQGYDYWGQGTQVSVSS
- polyreactivity (PSR sort gate): low polyreactivity

Sequence: QVQLVESGGGLVQAGGSLRLSCAASGRIFETNAMGWYRQAPGKERELVAVITRGGSTYYADSVKGSFTISRDNAKNTVYLQMNSLKPEVTALYYCNVRRLYGYGYYYWGQGTQVTVSW
- polyreactivity (PSR sort gate): low polyreactivity

Sequence: QVQLVESGGGLVQAGGSLRLSCAASGRIFEVYDMGWYRQAPGKERELVAAISESDDNTYYADSVKGRFTISRDNAKNTVYLQMNSLKPEDTAVYYCNADVPGDTGWWGFDYWGQGTQVTVSS
- polyreactivity (PSR sort gate): low polyreactivity

Sequence: QVQLVESGGGLVQAGGSLRLSCAASGRIFEVYTMGWYRQAPGKERELVAAIDRSTGSTYYADSVKGRFTISRDNAKNTVYLQMNSLKPEDTAVYYCAARGTFLGTRPLGRFDYWGQGTQVTVSS
- polyreactivity (PSR sort gate): low polyreactivity

Sequence: QVQLVESGGGLVQAGGSLRLSCAASGRIFEYIAMGWYRQAPGKERELVAAITSDGSTNDADSVKGRFTISRDNAKNTVYLQMNSLNPEDTAVYYCNTRYSLYTKYAYYDEHDYWGQGTQVTVSS
- polyreactivity (PSR sort gate): low polyreactivity

Sequence: QVQLVESGGGLVQAGGSLRLSCAASGRIFEYYAMGWYRQAPGKERELVAAINTGGNTYYADSVKGRFTLSRDNAKNTVYLQMNSLKPEDTAVYYCATYPIWYCGYLSGTDYDYWGQGTQVTVSS
- polyreactivity (PSR sort gate): low polyreactivity

Sequence: QVQLVESGGGLVQAGGSLRLSCAASGRIFFANAMGWYRQAPGKERELVAAISYSGTSTYYADSVKGRFTISRDNAKNSVYLQMNSLKPEDTAVYYCNAGRYIKMGDWGQGTQVTVSS
- polyreactivity (PSR sort gate): high polyreactivity
